# T1: DDX43 KH-126 (UniProt Q9NXZ2)
# T1 sequence: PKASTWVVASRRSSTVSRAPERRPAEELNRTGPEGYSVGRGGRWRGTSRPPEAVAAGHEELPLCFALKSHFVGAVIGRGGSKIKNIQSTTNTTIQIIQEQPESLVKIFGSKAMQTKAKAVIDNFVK
# T2: DDX43 KH-89 (UniProt Q9NXZ2 54-142)
# T2 sequence: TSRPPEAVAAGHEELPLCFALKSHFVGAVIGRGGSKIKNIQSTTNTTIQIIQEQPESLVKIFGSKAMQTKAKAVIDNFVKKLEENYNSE
# T3: DDX43 KH-89 A81G (UniProt Q9NXZ2 54-142, A81G)
# T3 sequence: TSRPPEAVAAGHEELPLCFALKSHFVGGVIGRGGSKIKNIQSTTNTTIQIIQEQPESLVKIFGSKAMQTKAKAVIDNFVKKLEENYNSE
# How the values were obtained:
# [1] = target: DDX43 KH-domain protein KH-126 (human) (UniProt Q9NXZ2); test: SEC; Sephacryl S-100 high-resolution column calibrated with molecular mass standards; buffer A (25 mM Tris pH 8.0, 0.15 M NaCl, 100 uM Tween 20, 10% glycerol), 0.5 ml/min
# DDX43 KH-126 = target: T1, DDX43 KH-126; test: filter binding; details: EMSA: 40 mM Tris pH 8.0, 0.5 mM MgCl2, 15 mM NaCl, 0.01% NP-40, 0.1 mM DTT, 1 mg/ml BSA, no ATP, ice 30 min (Fig 2A legend: RT); filter binding: 25 mM Tris pH …
# DDX43 full-length WT [2] = target: T4, DDX43 full-length WT (UniProt Q9NXZ2 1-648); test: EMSA; no ATP; preferred DNA; EMSA: 40 mM Tris pH 8.0, 0.5 mM MgCl2, 15 mM NaCl, 0.01% NP-40, 0.1 mM DTT, 1 mg/ml BSA, no ATP, ice 30 min (Fig 2A legend: RT); filter binding: 25 mM Tris pH 7.5, 25 mM KOAc, 1 mM Mg(OAc)2, 1 mM DTT, 0.1 mg/ml BSA, 37 C; NMR: 25 mM Hepes pH 7.4, 250 mM NaCl, 5% D2O, temperature not stated; details: protein: recombinant; (pET28a); label: 5'-32P; 20 bp, 3' overhang 25 nt on strand 1
# DDX43 KH-89 [3] = target: T2, DDX43 KH-89; test: NMR HSQC titration; EMSA: 40 mM Tris pH 8.0, 0.5 mM MgCl2, 15 mM NaCl, 0.01% NP-40, 0.1 mM DTT, 1 mg/ml BSA, no ATP, ice 30 min (Fig 2A legend: RT); filter binding: 25 mM Tris pH 7.5, 25 mM KOAc, 1 mM Mg(OAc)2, 1 mM DTT, 0.1 mg/ml BSA, 37 C; NMR: 25 mM Hepes pH 7.4, 250 mM NaCl, 5% D2O, temperature not stated; details: protein: recombinant; His removed by thrombin for NMR; 15N
# DDX43 KH-89 [4] = target: T2, DDX43 KH-89; test: NMR HSQC titration; negligible shift changes; EMSA: 40 mM Tris pH 8.0, 0.5 mM MgCl2, 15 mM NaCl, 0.01% NP-40, 0.1 mM DTT, 1 mg/ml BSA, no ATP, ice 30 min (Fig 2A legend: RT); filter binding: 25 mM Tris pH 7.5, 25 mM KOAc, 1 mM Mg(OAc)2, 1 mM DTT, 0.1 mg/ml BSA, 37 C; NMR: 25 mM Hepes pH 7.4, 250 mM NaCl, 5% D2O, temperature not stated; details: protein: recombinant; His removed by thrombin for NMR; 15N
# DDX43 full-length WT [5] = target: T4, DDX43 full-length WT; test: EMSA; no ATP; preferred RNA; EMSA: 40 mM Tris pH 8.0, 0.5 mM MgCl2, 15 mM NaCl, 0.01% NP-40, 0.1 mM DTT, 1 mg/ml BSA, no ATP, ice 30 min (Fig 2A legend: RT); filter binding: 25 mM Tris pH 7.5, 25 mM KOAc, 1 mM Mg(OAc)2, 1 mM DTT, 0.1 mg/ml BSA, 37 C; NMR: 25 mM Hepes pH 7.4, 250 mM NaCl, 5% D2O, temperature not stated; details: protein: recombinant; (pET28a); label: 5'-32P; 13 bp, 5' overhang 15 nt on strand 1
# DDX43 KH-89 [6] = target: T2, DDX43 KH-89; test: EMSA; EMSA: 40 mM Tris pH 8.0, 0.5 mM MgCl2, 15 mM NaCl, 0.01% NP-40, 0.1 mM DTT, 1 mg/ml BSA, no ATP, ice 30 min (Fig 2A legend: RT); filter binding: 25 mM Tris pH 7.5, 25 mM KOAc, 1 mM Mg(OAc)2, 1 mM DTT, 0.1 mg/ml BSA, 37 C; NMR: 25 mM Hepes pH 7.4, 250 mM NaCl, 5% D2O, temperature not stated; details: protein: recombinant; His removed by thrombin for NMR; 15N; label: 5'-32P
# DDX43 KH-89 A81G = target: T3, DDX43 KH-89 A81G; test: NMR HSQC titration; fewer residues shifted, larger shifts than WT; EMSA: 40 mM Tris pH 8.0, 0.5 mM MgCl2, 15 mM NaCl, 0.01% NP-40, 0.1 mM DTT, 1 mg/ml BSA, no ATP, ice 30 min (Fig 2A legend: RT); filter binding: 25 mM Tris pH 7.5, 25 mM KOAc, 1 mM Mg(OAc)2, 1 mM DTT, 0.1 mg/ml BSA, 37 C; NMR: 25 mM Hepes pH 7.4, 250 mM NaCl, 5% D2O, temperature not stated; details: protein: recombinant; tags: His cleaved by thrombin
# T4 sequence (Q9NXZ2 whole entry): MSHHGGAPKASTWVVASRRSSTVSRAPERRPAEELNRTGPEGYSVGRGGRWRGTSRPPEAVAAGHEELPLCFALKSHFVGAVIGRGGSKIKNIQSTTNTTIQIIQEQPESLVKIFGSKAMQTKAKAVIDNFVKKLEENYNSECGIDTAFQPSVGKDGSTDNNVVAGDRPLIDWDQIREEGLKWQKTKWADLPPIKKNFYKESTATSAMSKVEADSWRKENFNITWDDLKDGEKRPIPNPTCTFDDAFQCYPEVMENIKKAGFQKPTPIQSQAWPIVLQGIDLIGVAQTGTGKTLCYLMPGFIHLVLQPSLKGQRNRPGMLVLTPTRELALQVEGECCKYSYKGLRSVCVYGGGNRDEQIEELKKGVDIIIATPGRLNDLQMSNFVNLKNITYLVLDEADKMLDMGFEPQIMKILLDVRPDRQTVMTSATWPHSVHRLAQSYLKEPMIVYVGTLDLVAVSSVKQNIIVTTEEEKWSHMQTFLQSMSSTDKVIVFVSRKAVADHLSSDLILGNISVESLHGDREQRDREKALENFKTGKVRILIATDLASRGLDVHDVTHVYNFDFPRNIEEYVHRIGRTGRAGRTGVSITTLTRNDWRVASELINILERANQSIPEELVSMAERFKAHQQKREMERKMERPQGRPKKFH
molecule,measurement,setting,value
DDX43 KH-domain protein KH-126 (from UniProt Q9NXZ2 67-128) (domain or fragment),stoichiometry N,[1],2
UUUUUUUUUUUUUUUUUUUUUUUUUUUUUU [rU30],Kd,DDX43 KH-126,1.48 µM
GAGCUACCAGCUACCCCGUAUGUCAGAGAG [ssRNA 30-mer],Kd,DDX43 KH-126,3.01 µM
UUUUUUUUUUUUUUUGGUGAUGGUGUAUUGAGUGGGAUGCAUGCA / UGCAUGCAUCCCACUCAAUACACCAUCACCUUUUUUUUUUUUUUU [forked dsRNA 30/15],Kd,DDX43 KH-126,2.5 µM
TTTTTTTTTTTTTTTTTTTTTTTTTTTTTT [dT30],Kd,DDX43 KH-126,2.45 µM
GAGCTACCAGCTACCCCGTATGTCAGAGAG [ssDNA 30-mer],Kd,DDX43 KH-126,1.41 µM
TTTTTTTTTTTTTTTGGTGATGGTGTATTGAGTGGGATGCATGCA / TGCATGCATCCCACTCAATACACCATCACCTTTTTTTTTTTTTTT [fork dsDNA 30/15],Kd,DDX43 KH-126,1.29 µM
20-bp dsDNA 3' TTGT-repeat tail (dsDNA) DNA 1: CCACTCAATACACCATCACCTTGTTGTTGTTGTTGTTGTTGTTGT DNA 2: GGTGATGGTGTATTGAGTGG,binding result,DDX43 full-length WT [2],binds
CTCTC (ssDNA),binding result,DDX43 KH-89 [3],binds
AAAAA (ssDNA) [dA5],binding result,DDX43 KH-89 [4],no binding
13-bp dsRNA 5' UUGU-repeat tail (dsRNA) RNA 1: UGUUGUUGUUGUUGUACCGUAAAGACGC RNA 2: GCGUCUUUACGGU,binding result,DDX43 full-length WT [5],binds
CCCCC (ssDNA) [dC5],Kd,DDX43 KH-89 [3],2100 ± 400 µM
GTTGT (ssDNA),Kd,DDX43 KH-89 [3],44 µM
TTTTTTTTTT (ssDNA) [dT10],Kd,DDX43 KH-89 [3],174 ± 90 µM
TGTGT (ssDNA),Kd,DDX43 KH-89 [3],78 µM
CGCGC (ssDNA),Kd,DDX43 KH-89 [3],266 µM
UUUUU (ssRNA) [rU5],Kd,DDX43 KH-89 [3],1800 ± 200 µM
GAGCTACCAGCTACCCCGTATGTCAGAGAG (ssDNA) [ssDNA 30-mer],binding result,DDX43 KH-89 [6],binds
GGGGG (ssDNA) [dG5],binding result,DDX43 KH-89 [4],no binding
TTTTT (ssDNA) [dT5],binding result,DDX43 KH-89 A81G,binds
same,Kd,DDX43 KH-89 [3],1500 ± 290 µM
GAGCUACCAGCUACCCCGUAUGUCAGAGAG (ssRNA) [ssRNA 30-mer],binding result,DDX43 KH-89 [6],binds

# Source: paper PMC7949032, “The KH domain facilitates the substrate specificity and unwinding processivity of DDX43 helicase”
